Assay results as given in paper PMC11574045, “A cofactor-induced repressive type of transcription factor condensation can be induced by synthetic peptides to suppress tumorigenesis” (The EMBO Journal, 2024).

Test system: HEK293FT cells transfected with TF library
Assay: Screening of TF condensates based on fluorescent puncta
Type: cell-based
Details: Figure 1B numerical data; TF library screen, one value per transcriptional factor
Summary of the method: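 HEK293FT cells were reverse-transfected with Flag- or GAL4-tagged TF plasmids (1.6 μg/ml, PEI). After 60 h, cells were cultured 12 h with or without glucose, then fixed and immunostained with anti-Flag or anti-GAL4 and Alexa 488 secondaries. Fluorescent puncta were imaged over fifty random fields per well by high-content imaging.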

| Molecule | Z score of condensed fraction |
| --- | --- |
| HMG1 (protein, UniProt P09429 1-215, looked up) High mobility group protein B1: MGKGDPKKPRGKMSSYAFFVQTCREEHKKKHPDASVNFSEFSKKCSERWKTMSAKEKGKFEDMAKADKARYEREMKTYIPPKGETKKKFKDPNAPKRPPSAFFLFCSEYRPKIKGEHPGLSIGDVAKKLGEMWNNTAADDKQPYEKKAAKLKEKYEKDIAAYRAKGKPDAAKKGVVKAEKSKKKKEEEEDEEDEEDEEEEEDEEDEDEEEDDDDE | 1.213 |
| HES2 (protein, UniProt Q9Y543 1-173, looked up) Transcription factor HES-2: MGLPRRAGDAAELRKSLKPLLEKRRRARINQSLSQLKGLILPLLGRENSNCSKLEKADVLEMTVRFLQELPASSWPTAAPLPCDSYREGYSACVARLARVLPACRVLEPAVSARLLEHLWRRAASATLDGGRAGDSSGPSAPAPAPASAPEPASAPVPSPPSPPCGPGLWRPW | -1.172 |
| HMG20B (protein, UniProt Q9P0W2 1-317, looked up) SWI/SNF-related …: MSHGPKQPGAAAAPAGGKAPGQHGGFVVTVKQERGEGPRAGEKGSHEEEPVKKRGWPKGKKRKKILPNGPKAPVTGYVRFLNERREQIRTRHPDLPFPEITKMLGAEWSKLQPTEKQRYLDEAEREKQQYMKELRAYQQSEAYKMCTEKIQEKKIKKEDSSSGLMNTLLNGHKGGDCDGFSTFDVPIFTEEFLDQNKAREAELRRLRKMNVAFEEQNAVLQRHTQSMSSARERLEQELALEERRTLALQQQLQAVRQALTASFASLPVPGTGETPTLGTLDFYMARLHGAIERDPAQHEKLIVRIKEILAQVASEHL | -0.2795 |
| HLX (protein, UniProt Q14774 1-488, looked up) H2.0-like homeobox protein: MFAAGLAPFYASNFSLWSAAYCSSAGPGGCSFPLDPAAVKKPSFCIADILHAGVGDLGAAPEGLAGASAAALTAHLGSVHPHASFQAAARSPLRPTPVVAPSEVPAGFPQRLSPLSAAYHHHHPQQQQQQQQPQQQQPPPPPRAGALQPPASGTRVVPNPHHSGSAPAPSSKDLKFGIDRILSAEFDPKVKEGNTLRDLTSLLTGGRPAGVHLSGLQPSAGQFFASLDPINEASAILSPLNSNPRNSVQHQFQDTFPGPYAVLTKDTMPQTYKRKRSWSRAVFSNLQRKGLEKRFEIQKYVTKPDRKQLAAMLGLTDAQVKVWFQNRRMKWRHSKEAQAQKDKDKEAGEKPSGGAPAADGEQDERSPSRSEGEAESESSDSESLDMAPSDTERTEGSERSLHQTTVIKAPVTGALITASSAGSGGSSGGGGNSFSFSSASSLSSSSTSAGCASSLGGGGASELLPATQPTASSAPKSPEPAQGALGCL | 2.079 |
| HES1 (protein, UniProt Q14469 1-280, looked up) Transcription factor HES-1: MPADIMEKNSSSPVAATPASVNTTPDKPKTASEHRKSSKPIMEKRRRARINESLSQLKTLILDALKKDSSRHSKLEKADILEMTVKHLRNLQRAQMTAALSTDPSVLGKYRAGFSECMNEVTRFLSTCEGVNTEVRTRLLGHLANCMTQINAMTYPGQPHPALQAPPPPPPGPGGPQHAPFAPPPPLVPIPGGAAPPPGGAPCKLGSQAGEAAKVFGGFQVVPAPDGQFAFLIPNGAFAHSGPVIPVYTSNSGTSVGPNAVSPSSGPSLTADSMWRPWRN | -0.8248 |
| HELIOS (protein, UniProt Q9UKS7 1-526, looked up) Zinc finger protein Helios: METEAIDGYITCDNELSPEREHSNMAIDLTSSTPNGQHASPSHMTSTNSVKLEMQSDEECDRKPLSREDEIRGHDEGSSLEEPLIESSEVADNRKVQELQGEGGIRLPNGKLKCDVCGMVCIGPNVLMVHKRSHTGERPFHCNQCGASFTQKGNLLRHIKLHSGEKPFKCPFCSYACRRRDALTGHLRTHSVGKPHKCNYCGRSYKQRSSLEEHKERCHNYLQNVSMEAAGQVMSHHVPPMEDCKEQEPIMDNNISLVPFERPAVIEKLTGNMGKRKSSTPQKFVGEKLMRFSYPDIHFDMNLTYEKEAELMQSHMMDQAINNAITYLGAEALHPLMQHPPSTIAEVAPVISSAYSQVYHPNRIERPISRETADSHENNMDGPISLIRPKSRPQEREASPSNSCLDSTDSESSHDDHQSYQGHPALNPKRKQSPAYMKEDVKALDTTKAPKGSLKDIYKVFNGEGEQIRAFKCEHCRVLFLDHVMYTIHMGCHGYRDPLECNICGYRSQDRYEFSSHIVRGEHTFH | -0.5188 |
| HESX (protein, UniProt Q9UBX0 1-185, looked up) Homeobox expressed in ES …: MSPSLQEGAQLGENKPSTCSFSIERILGLDQKKDCVPLMKPHRPWADTCSSSGKDGNLCLHVPNPPSGISFPSVVDHPMPEERASKYENYFSASERLSLKRELSWYRGRRPRTAFTQNQIEVLENVFRVNCYPGIDIREDLAQKLNLEEDRIQIWFQNRRAKLKRSHRESQFLMAKKNFNTNLLE | -0.5047 |
| HELT (protein, UniProt A6NFD8 1-242, looked up) Hairy and enhancer of …: MSDKLKERKRTPVSHKVIEKRRRDRINRCLNELGKTVPMALAKQSSGKLEKAEILEMTVQYLRALHSADFPRGREKAELLAEFANYFHYGYHECMKNLVHYLTTVERMETKDTKYARILAFLQSKARLGAEPAFPPLGSLPEPDFSYQLHPAGPEFAGHSPGEAAVFPQGSGAGPFPWPPGAARSPALPYLPSAPVPLASPAQQHSPFLTPVQGLDRHYLNLIGHAHPNALNLHTPQHPPVL | -0.4669 |
| HEYL (protein, UniProt Q9NQ87 1-328, looked up) Hairy/enhancer-of-split …: MKRPKEPSGSDGESDGPIDVGQEGQLSQMARPLSTPSSSQMQARKKHRGIIEKRRRDRINSSLSELRRLVPTAFEKQGSSKLEKAEVLQMTVDHLKMLHATGGTGFFDARALAVDFRSIGFRECLTEVIRYLGVLEGPSSRADPVRIRLLSHLNSYAAEMEPSPTPTGPLAFPAWPWSFFHSCPGLPALSNQLAILGRVPSPVLPGVSSPAYPIPALRTAPLRRATGIILPARRNVLPSRGASSTRRARPLERPATPVPVAPSSRAARSSHIAPLLQSSSPTPPGPTGSAAYVAVPTPNSSSPGPAGRPAGAMLYHSWVSEITEIGAF | 1.497 |
| HMBOX1 (protein, UniProt Q6NT76 1-420, looked up) Homeobox-containing protein 1: MLSSFPVVLLETMSHYTDEPRFTIEQIDLLQRLRRTGMTKHEILHALETLDRLDQEHSDKFGRRSSYGGSSYGNSTNNVPASSSTATASTQTQHSGMSPSPSNSYDTSPQPCTTNQNGRENNERLSTSNGKMSPTRYHANSMGQRSYSFEASEEDLDVDDKVEELMRRDSSVIKEEIKAFLANRRISQAVVAQVTGISQSRISHWLLQQGSDLSEQKKRAFYRWYQLEKTNPGATLSMRPAPIPIEDPEWRQTPPPVSATSGTFRLRRGSRFTWRKECLAVMESYFNENQYPDEAKREEIANACNAVIQKPGKKLSDLERVTSLKVYNWFANRRKEIKRRANIEAAILESHGIDVQSPGGHSNSDDVDGNDYSEQDDSTSHSDHQDPISLAVEMAAVNHTILALARQGANEIKTEALDDD | -0.9564 |
| HLF (protein, UniProt Q16534 1-295, looked up) Hepatic leukemia factor: MEKMSRPLPLNPTFIPPPYGVLRSLLENPLKLPLHHEDAFSKDKDKEKKLDDESNSPTVPQSAFLGPTLWDKTLPYDGDTFQLEYMDLEEFLSENGIPPSPSQHDHSPHPPGLQPASSAAPSVMDLSSRASAPLHPGIPSPNCMQSPIRPGQLLPANRNTPSPIDPDTIQVPVGYEPDPADLALSSIPGQEMFDPRKRKFSEEELKPQPMIKKARKVFIPDDLKDDKYWARRRKNNMAAKRSRDARRLKENQIAIRASFLEKENSALRQEVADLRKELGKCKNILAKYEARHGPL | 2.55 |
| HMG20A (protein, UniProt Q9NP66 1-347, looked up) High mobility group protein …: MENLMTSSTLPPLFADEDGSKESNDLATTGLNHPEVPYSSGATSSTNNPEFVEDLSQGQLLQSESSNAAEGNEQRHEDEQRSKRGGWSKGRKRKKPLRDSNAPKSPLTGYVRFMNERREQLRAKRPEVPFPEITRMLGNEWSKLPPEEKQRYLDEADRDKERYMKELEQYQKTEAYKVFSRKTQDRQKGKSHRQDAARQATHDHEKETEVKERSVFDIPIFTEEFLNHSKAREAELRQLRKSNMEFEERNAALQKHVESMRTAVEKLEVDVIQERSRNTVLQQHLETLRQVLTSSFASMPLPGSGETPTVDTIDSYMNRLHSIILANPQDNENFIATVREVVNRLDR | -0.5061 |
| APBB1 (protein, UniProt O00213 1-710, looked up) Amyloid beta precursor …: MSVPSSLSQSAINANSHGGPALSLPLPLHAAHNQLLNAKLQATAVGPKDLRSAMGEGGGPEPGPANAKWLKEGQNQLRRAATAHRDQNRNVTLTLAEEASQEPEMAPLGPKGLIHLYSELELSAHNAANRGLRGPGLIISTQEQGPDEGEEKAAGEAEEEEEDDDDEEEEEDLSSPPGLPEPLESVEAPPRPQALTDGPREHSKSASLLFGMRNSAASDEDSSWATLSQGSPSYGSPEDTDSFWNPNAFETDSDLPAGWMRVQDTSGTYYWHIPTGTTQWEPPGRASPSQGSSPQEESQLTWTGFAHGEGFEDGEFWKDEPSDEAPMELGLKEPEEGTLTFPAQSLSPEPLPQEEEKLPPRNTNPGIKCFAVRSLGWVEMTEEELAPGRSSVAVNNCIRQLSYHKNNLHDPMSGGWGEGKDLLLQLEDETLKLVEPQSQALLHAQPIISIRVWGVGRDSGRERDFAYVARDKLTQMLKCHVFRCEAPAKNIATSLHEICSKIMAERRNARCLVNGLSLDHSKLVDVPFQVEFPAPKNELVQKFQVYYLGNVPVAKPVGVDVINGALESVLSSSSREQWTPSHVSVAPATLTILHQQTEAVLGECRVRFLSFLAVGRDVHTFAFIMAAGPASFCCHMFWCEPNAASLSEAVQAACMLRYQKCLDARSQASTSCLPAPPAESVARRVGWTVRRGVQSLWGSLKPKRLGAHTP | 2.844 |
| HES5 (protein, UniProt Q5TA89 1-166, looked up) Transcription factor HES-5: MAPSTVAVELLSPKEKNRLRKPVVEKMRRDRINSSIEQLKLLLEQEFARHQPNSKLEKADILEMAVSYLKHSKAFVAAAGPKSLHQDYSEGYSWCLQEAVQFLTLHAASDTQMKLLYHFQRPPAAPAAPAKEPKAPGAAPPPALSAKATAAAAAAHQPACGLWRPW | -0.9865 |
| HHEX (protein, UniProt Q03014 1-270, looked up) Hematopoietically-expressed …: MQYPHPGPAAGAVGVPLYAPTPLLQPAHPTPFYIEDILGRGPAAPTPAPTLPSPNSSFTSLVSPYRTPVYEPTPIHPAFSHHSAAALAAAYGPGGFGGPLYPFPRTVNDYTHALLRHDPLGKPLLWSPFLQRPLHKRKGGQVRFSNDQTIELEKKFETQKYLSPPERKRLAKMLQLSERQVKTWFQNRRAKWRRLKQENPQSNKKEELESLDSSCDQRQDLPSEQNKGASLDSSQCSPSPASQEDLESEISEDSDQEVDIEGDKSYFNAG | -0.4373 |
| HES3 (protein, UniProt Q61657 1-175, looked up) Transcription factor HES-3: MEKKRRARINVSLEQLRSLLERHYSHQIRKRKLEKADILELSVKYMRSLQNSLQGLWPVPSGVDYPSGFQGGLRGVSQRLRPGEGDSGLRCPLLLQRREGSTTDSANPQATSVLNPCLPAIWAPSRAAGGSHSPQSPLPLPGGLLESSTDVVAPHPASNCQAESTRPGFRVWRPW | -1.103 |
